Test results taken from patent US7183092B2, “Modified luciferase” (priority 2003, dated 2007).
Entries after “also recorded” stand apart in the source; their conditions may differ.

Key:
[1] = Luciferase activity at different pHs; type: biochemical, Photinus pyralis
Experimental: 20 ng of enzyme was used for each reaction. The pH was maintained at 7.8 by 40 mM Tris-acetate buffer and 33 mM DTT was added to each reaction. Both substrates, MGATP and D-Luciferin were saturated at 1 mM and 500 μM respectively. The values were normalized against the highest RLU (relative light units) at each pH optimum for comparison purpose. CNBLuc03-06 luciferase (SEQ ID NO: 4) has optimum pH of 9, but the high enough activity is retained at lower pHs in which enables us to use this mutant luciferase in case a wide range of pH is required for the assay (between 8–11).

[2] = Thermostability (storage stability) of luciferase; type: physicochemical, Photinus pyralis; conditions: FIG. 6-8; 10 μg/ml enzyme kept at 0° C., 25° C. and 37° C.
Experimental: Both purified wild type luciferase and CNBLuc03-06 luciferase (SEQ ID NO: 4) were diluted to 10 μg/ml and aliquoted in three micro-centrifuge tubes for these storage stability studies conducted at different temperatures. The tubes containing wild type luciferase and CNBluc03-06 luciferase (SEQ ID NO: 4) were incubated at three different temperatures, 0° C. (FIG. 6), 25° C. (FIG. 7), and 37° C. (FIG. 8) over time. The assay contained 40 mM Tris-Acetate at pH 7.8, 1 mM MgSO4, 0.1 mM EDTA, 500 μM D-Luciferin, 1 mM ATP, 0% ethanol and 33 mM DTT. The light output was measured every 30 minutes after two initial measurements at time 0 and 10 minutes. For each measurement all the samples were diluted to 2 μg/ml so that 10 μl of each sample could be added to give 20 ng of purified enzyme in each reaction.

[3] = Stability of CNBLuc03-06 luciferase activity in the presence of HPV chemicals; type: biochemical, Photinus pyralis
Experimental: (§1) The stability of CNBLuc03-06 luciferase (SEQ ID NO: 4), both in purified form and in cell lysates, in the presence of a range of potential inhibitors was assayed. The basic assay contained 40 mM Tris-Acetate at pH 7.8, 1 mM MgSO4, 0.1 mM EDTA (ethylenediaminetetraacetic acid), 500 μM D-Luciferin and 500 μM ATP. Ethanol, DTT (dithiothreitol) and potential inhibitors were included at the concentrations stated.
This effect was confirmed by repeated experiments. With 20 ng purified CNBLuc03-06 luciferase (SEQ ID NO: 4) and in the presence of 2.5% ethanol, 1 mM DTT and 86 mM chloroform an activation of approximately 50% was measured, compared with the absence of chloroform.
The capacity of a variety HPV chemicals to inhibit or activate both wild type luciferase and CNBLuc03-06 luciferase (SEQ ID NO: 4) activity compared to controls without HPV chemicals was tested. Higher concentrations of chloroform (172 mM), methylene chloride (318 mM) or toluene (2.7 mM) were used. The basic assay contained 20ng of purified CNBLuc03-06, 1 mM DTT and 2.5% ethanol. CNBLuc03-06 luciferase (SEQ ID NO: 4) was exposed to each chemical for less than 5 minutes before measuring the light output.

[4] = Specific activity of luciferase in the absence of DTT; type: biochemical, Photinus pyralis; conditions: 0 mM DTT, pH 7.8, 1 mM ATP, 500 μM D-Luciferin, three replicates
Experimental: Dithiothreitol (DTT) is an enzyme stabilizing agent used to reduce disulfide bonds (break the bonds) that are not normally formed under physiological conditions. Both purified wild type luciferase and CNBLuc03-06 luciferase (SEQ ID NO: 4) were diluted to 2 μg/ml in 40 mM Tris Acetate buffer at pH 7.8. The assay contained 40 mM Tris-Acetate at pH 7.8, 1 mM MgSO4, 0.1 mM EDTA, 500 μM D-Luciferin, 1 mM ATP, and 0 mM DTT. The light output was measured over time and three replicate measurements were made for each luciferase. The average value of the highest light output reading obtained over time was used to determine specific activity of each enzyme.

[5] = Luciferase activity in the presence of nonionic detergent Triton X-100; type: biochemical, Photinus pyralis; conditions: FIG. 4; Triton X-100 up to 5%, 20 ng purified luciferase, 0% ethanol, 33 mM DTT
Experimental: as §1
(§2) The stability of CNBLuc03-06 luciferase (SEQ ID NO: 4) in the presence of Triton X-100 and SDS was determined using 20 ng of purified luciferase per sample using the basic assay conditions and in the presence of 0% ethanol and 33 mM DTT. The effect of detergents on wild type luciferase was determined previously by W. J. Simpson and J. R. M. Hammond (W. J. Simpson and J. R. M. Hammond, (1991) Journal of Bioluminescence & Chemiluminescence, 6. 97–106, incorporated herein by reference). They reported the anionic detergents inhibit luciferase activity, and cationic detergents and nonionic detergents increase the reaction rate when the concentration of detergent exceeds critical micelle concentration (CMC) value but only up to certain concentrations.

[6] = Luciferase activity in the presence of anionic detergent SDS; type: biochemical, Photinus pyralis; conditions: FIG. 5; 20 ng purified luciferase, 0% ethanol, 33 mM DTT
Experimental: as §1, §2
SDS was used for testing the effect of anionic detergents.

[7] = Quantitative in vitro screening of mutant luciferases with chloroform; type: biochemical, Photinus pyralis; conditions: screening; 68.8 mM chloroform (0.8% vol.), 10% ethanol, 33 mM DTT, cell lysate supernatant
Experimental: Selected colonies from secondary screening were inoculated and grown in 5 ml LB broth containing 100 μg/ml ampicillin at 30° C. overnight. When the OD660 reached approximately 1, bacterial cells were harvested from 1.5 ml of culture by centrifugation for 3 min at 12,000 rpm (Eppendorf centrifuge model 5415D). Harvested cells were resuspended in 1 ml of 40 mM Tris-Acetate buffer, pH 7.8, and sonicated for 10 seconds using a Branson Sonifer 450, Duty cycle-40 and output control-4. The activity of each luciferase sample, prepared using 10 μl of supernatant from a subsequent centrifugation of sonicated bacterial cell culture, was tested in 200 μl total reaction volume by a Luminometer (Perkin Elmer, model Victor II). Each assay contained 40 mM Tris-Acetate, 1 mM MgSO4, 0.1 mM EDTA (ethylenediaminetetraacetic acid), 33 mM DTT (dithiothreitol), 500 μM D-Luciferin, 10% Ethanol and 500 μM ATP at pH 7.8. Some screening assays also contained 68.8 mM chloroform (0.8% vol.).
Different mutant luciferases were compared quantitatively by determining the percentage (%) inhibition of luciferase activity in the presence of chloroform relative to a control without chloroform. The specific activities of chloroform-tolerant mutants were generally lower as compared to wild type. […] The nucleotide sequence of CNBLuc03-02 is SEQ ID No: 1. The polypeptide sequence of the product of SEQ ID No: 1 is SEQ ID No: 2.

B1: CNBLuc03-06: modified Photinus pyralis luciferase: serine to threonine at 239, aspartic acid to tyrosine at 357, alanine to threonine at 532 (protein, listed as Photinus pyralis)
chain: MEDAKNIKKGPAPFYPLEDGTAGEQLHKAMKRYALVPGTIAFTDAHIEVNITYAEYFEMSVRLAEAMKRYGLNTNHRIVVCSENSLQFFMPVLGALFIGVAVAPANDIYNERELLNSMNISQPTVVFVSKKGLQKILNVQKKLPIIQKIIIMDSKTDYQGFQSMYTFVTSHLPPGFNEYDFVPESFDRDKTIALIMNSSGSTGLPKGVALPHRTACVRFSHARDPIFGNQIIPDTAILTVVPFHHGFGMFTTLGYLICGFAVVLMYRFEEELFLRSLQDYKIQSALLVPTLFSFFAKSTLIDKYDLSNLHEIASGGAPLSKEVGEAVAKRFHLPGIRQGYGLTETTSAILITPEGDYKPGAVGKVVPFFEAKVVDLDTGKTLGVNQRGELCVRGPMIMSGYVNNPEATNALIDKDGWLHSGDIAYWDEDEHFFIVDRLKSLIKYKGYQVAPAELESILLQHPNIFDAGVAGLPDDDAGELPAAVVVLEHGKTMTEKEIVDYVASQVTTAKKFRGGVVFVDEVPKGLTGKLDTRKIREILIKAKKGGKSKL
[1]; FIG. 9, 20 ng enzyme, 33 mM DTT, 1 mM MgATP, 500 μM D-Luciferin
  optimum pH: 9
[1]; up to pH 11
  activity at elevated pH: high activity at elevated pH (up to pH 11)
[2]
  activity retained on incubation over time: retained more activity than wild type luciferase
[3]; 20 ng purified enzyme, 2.5% ethanol, 1 mM DTT, 86 mM chloroform
  activation compared with the absence of chloroform: approximately 50%
[3]; FIG. 3, chloroform 172 mM, 20 ng purified enzyme, 1 mM DTT, 2.5% ethanol
  activation compared to controls, chloroform: approximately 60%
[3]; FIG. 3, methylene chloride 318 mM, 20 ng purified enzyme, 1 mM DTT, 2.5% ethanol
  activation compared to controls, methylene chloride: approximately 80%
[3]; FIG. 3, toluene 2.7 mM, 20 ng purified enzyme, 1 mM DTT, 2.5% ethanol
  activation compared to controls, toluene: about 20%
[3]; cell lysates, 5% ethanol, 33 mM DTT, 0.8% chloroform
  activation compared with the absence of chloroform: about 30%
[4]
  specific activity (highest light output): 9.6±0.4×10^9 RLU/mg enzyme/sec
[5]
  effect of Triton X-100 on luciferase activity: activated by the nonionic detergent, Triton X-100, up to final concentration of 1.25%; also recorded: maintained activities above the control at all concentrations of Triton X-100
[6]
  effect of SDS on luciferase activity: inhibited luciferase activity significantly; also recorded: retained much more activity at all concentrations of SDS compared to wild type luciferase
[7]
  inhibition of luciferase activity in the presence of chloroform relative to a control without chloroform: not only resistant to, but also had the capacity to be activated by chloroform
